Data taken from US9724388B2, “FGF-18 compound dosing regimen” (MERCK PATENT GMBH, priority 2014, dated 2017).

Test system: Primary articular porcine chondrocytes
Test: Porcine chondrocyte proliferation with or without IL1α challenge
Format: cell-based, pig
Conditions: 100 ng/mL, 8 days
Experimental: Porcine chondrocytes were isolated from the cartilage of a femoral head of a pig hip (pigs were approximately one year old). After dissection of the joints, the cartilage was harvested and digested 45 minutes with collagenase 0.25% (1/10 dilution of collagenase NBG4 2.5% in HAM's F12) at room temperature. The loosened cells were discarded and the cartilage further digested overnight with collagenase 0.1% (1/25 dilution of collagenase NBG4 2.5% in HAM's F12) at 37° C. to extract the chondrocytes. For this study, the chondrocytes were cultured in monolayer.
Primary articular porcine chondrocytes were stimulated or not with 10 ng/mL IL1α and were either treated immediately or 6 hours later with anakinra 100 ng/mL and/or trFGF-18 100 ng/mL. Each condition was performed in 4 or 6-plicates. As a control, cells were also cultured with anakinra alone, trFGF-18 alone or in the absence of any treatment (medium).
Pre-culture: After cell isolation porcine chondrocytes were inoculated at 20,000 cells/cm^2 and cultivated for one week in complete HAM's F12. Cells were then harvested with accutase, counted and used as described below.
For cells treated directly with anakinra: Chondrocytes were inoculated in a 24-well plate at 15,000 cells/well in 0.5 mL of complete HAM's F12. Then 0.25 mL of trFGF-18 400 ng/mL and/or 0.25 mL of anakinra 400 ng/mL were added to the cells. In the challenged samples, 10 μL of IL1α at 1,000 ng/mL were also added to the cells. trFGF-18, anakinra and IL1α were all diluted in complete HAM's F12. The final volume in the culture well was adjusted at 1 mL with complete HAM's F12. Final concentrations were 10 ng/mL IL1α, 100 ng/mL trFGF-18 and 100 ng/mL anakinra and the total culture time was eight days. A complete medium change was performed after four days. N=4.
For cells treated with anakinra and trFGF-18 6 hours after the IL1α challenge: Chondrocytes were inoculated in a 24-well plate at 15,000 cells/well in 1 mL of complete HAM's F12 containing or not containing IL1α 10 ng/mL. After 6 hours the medium was removed and replaced with 0.25 mL trFGF-18 400 ng/mL and/or 0.25 mL of anakinra 400 ng/mL. In the challenged samples, 0.25 mL of IL1α at 40 ng/mL was also added to the cells. trFGF-18, anakinra and IL1α were all diluted in complete HAM's F12. The final volume in the culture well was adjusted at 1 mL with complete HAM's F12. Final concentrations were 10 ng/mL IL1α, 100 ng/mL trFGF-18 and 100 ng/mL anakinra and the total culture time was eight days. A complete medium change was performed after four days. N=6.
After eight days of culture, cells were harvested with accutase and resulting cell suspensions were analyzed for cell concentration and cell viability with a ViCell™ cell analyzer (from Beckman Coulter). Statistical analysis consisted in a 1-way ANOVA followed by a Dunnett post-hoc analysis.

B1: trFGF-18: recombinant truncated form of human FGF-18 (170 amino acids, SEQ ID NO: 2), produced in E. coli (protein)
chain: MEENVDFRIHVENQTRARDDVSRKQLRLYQLYSRTSGKHIQVLGRRISARGEDGDKYAQLLVETDTFGSQVRIKGKETEFYLCMNRKGKLVGKPDGTSKECVFIEKVLENNYTALMSAKYSGWYVGFTKKGRPRKGPKTRENQQDVHFMKRYPKGQPELQKPFKYTTVTK
modifications: Recombinant truncated FGF-18(trFGF-18)
**Q.** Which “stimulation of proliferation vs control (medium, IL1α 10 ng/mL)” value (first experiment (direct treatment)) does the source give for B1 here?
**A.** Its value is 2.38 fold.

**Q.** And the “stimulation of proliferation vs control (medium, IL1α 10 ng/mL)” value (second experiment (6-hour delay))?
**A.** Its value is 2.44 fold.

**Q.** What about the “increase in cell numbers vs control (medium, no IL1α)” value (first experiment (direct treatment, FIG. 6A)) of the same molecule?
**A.** The value was 11.25 fold.

**Q.** What about the “increase in cell numbers vs control (medium, no IL1α)” value (second experiment (6-hour delay, FIG. 6B)) of the same molecule?
**A.** Its value is 7.75 fold.
